Source: the supplement of paper PMC12042874
± gives the uncertainty stated by the source.

assay: amyloid nucleation score (Sup35N fusion, yeast selection) (log enrichment); library NNK1; higher = more nucleation; inactive = no reads after selection
Method in brief: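 DiMSum was used to calculate nucleation scores as log enrichment of output over input reads, centred on the mode score of non-aggregating sequences. Sequences with fewer than 100 input reads were not scored. Input and output came from Illumina sequencing of plasmid inserts in psi-negative yeast expressing peptides of 20 random codons fused to Sup35N, induced 24 hours with 100 μM copper sulfate and then grown 7 days at 30°C on medium lacking adenine and uracil.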

RPLRCWAIHYGQVYDSSAIL and RPMYHGYHMH are within error of each other in amyloid nucleation score: 0.987 ± 0.62 for the first, 0.483 ± 0.38 for the second.

RPRHIFDNSKVYNMGPYFYD and RPRICLWWSLNQMDVWNRDR are within error of each other in amyloid nucleation score: 1.59 ± 0.56 for the first, 2.17 ± 0.31 for the second.

Going from RPSITNRPC to RPTGLDILS, the amyloid nucleation score rises from 0.735 ± 0.83 to 3.56 ± 0.1.

RPYGVNR and RQDARE are within error of each other in amyloid nucleation score: -0.271 ± 0.66 for the first, 0.004 ± 0.42 for the second.

RQLFIGGAPDLC and RQNGRKDPGNVKRGITCR are within error of each other in amyloid nucleation score: 0.216 ± 0.59 for the first, 0.066 ± 0.38 for the second.

RQQMTRTCVNDGS and RQSQRWYFLLCGYYKAFFRR are within error of each other in amyloid nucleation score: -1.02 ± 2.4 for the first, 1.63 ± 0.73 for the second.

RREFYFLLVIALKSV and RRGVV are within error of each other in amyloid nucleation score: 1.32 ± 0.31 for the first, 0.659 ± 0.93 for the second.

First: RRGVYSKVFAENHVLCMLSL
Second: RRHWTVMVMNIPVGMFIVIR
The amyloid nucleation score of the first is higher: 4.01 ± 0.067 for the first, 0.155 ± 0.27 for the second.

RRILGRYRC and RRLFMGPI are within error of each other in amyloid nucleation score: -0.129 ± 1.1 for the first, 0.802 ± 1 for the second.

First: RRNVYFYVWYVSPNVMKYSN
Second: RRPENKCYHPLVCDFVAVWF
The amyloid nucleation score of the first is higher: 3.84 ± 0.1 for the first, 0.476 ± 1.1 for the second.

Going from RRRASGHRASY to RRRHWVSSAGGKRRHLVFCA, the amyloid nucleation score rises from -0.52 ± 0.39 to 1.22 ± 0.46.

RRRRSDKDVYPFQSFMFNVV and RRRYGRWMLCCCVVWV are within error of each other in amyloid nucleation score: 0.476 ± 0.3 for the first, -0.147 ± 0.37 for the second.

Going from RRSESCMFYVMWYGNRYLEG to RRVLSRGSAVSWALSSGGD, the amyloid nucleation score falls from 0.638 ± 0.18 to -0.586 ± 0.46.

First: RRVTCGLQGVLRENR
Second: RRYCDTTVFHGYSVSCRAYG
The amyloid nucleation score of the first is higher: 0.4 ± 0.46 for the first, -0.842 ± 0.74 for the second.

RRYHGGDWSLLVNQLN and RSCLDGSRVMVSWR are within error of each other in amyloid nucleation score: 0.374 ± 0.23 for the first, 0.305 ± 0.46 for the second.

RSDVVVFHQLS and RSDYVNDGEYWAFRDRMMNM are within error of each other in amyloid nucleation score: -0.257 ± 1.7 for the first, -0.126 ± 0.35 for the second.

Going from RSEYAPRTNYK to RSFCRSSVIFVFP, the amyloid nucleation score rises from -0.237 ± 0.48 to 2.79 ± 0.19.

RSHHIWGY and RSHVVTGYARSGRGLLATDM are within error of each other in amyloid nucleation score: 0.353 ± 0.48 for the first, 0.396 ± 0.45 for the second.

RSKNWMVNRDWGSKVDRLAN and RSLFMAQVGHMWGRNVIRGI are within error of each other in amyloid nucleation score: 0.089 ± 0.86 for the first, -0.29 ± 1.7 for the second.

RSLRVA and RSMSTIRIEGSESTSFISS are within error of each other in amyloid nucleation score: -0.214 ± 1.2 for the first, -0.812 ± 1.7 for the second.

Compared with RSMYSQCVLIMGAPTRISGL, RSQKLGHIGRDTLQWGLYCS is lower in amyloid nucleation score: 6.295 ± 0.054 for the first, -0.024 ± 0.38 for the second.

Going from RSRSGC to RSSLNTCWMGSYNVLGTRTG, the amyloid nucleation score rises from 0.441 ± 0.51 to 4.39 ± 0.11.

Compared with RSSNLVCYFFSVWWY, RSSSCKWV is lower in amyloid nucleation score: 2.02 ± 0.44 for the first, -0.53 ± 0.75 for the second.

RSSSDKPSKTTTWRMLAGTG and RSSVVWLWSHYC are within error of each other in amyloid nucleation score: -0.113 ± 0.7 for the first, 0.588 ± 0.56 for the second.

Going from RSVWDRWFDPIMTFEQESTW to RSWPHGCVAEQNTCSPHKLA, the amyloid nucleation score rises from -0.812 ± 1.7 to 1.48 ± 0.55.

Compared with RSYLCDREYCVFGFCLGIYS, RSYVVSPVNY is lower in amyloid nucleation score: 3.44 ± 0.15 for the first, -1.18 ± 0.76 for the second.

Compared with RTCYNRDTEMSRGCYTMRVA, RTNVWVAFVDSRSHGQFCQK is higher in amyloid nucleation score: -0.554 ± 0.77 for the first, 3.68 ± 0.18 for the second.

RTRTFVNPAAAIHMPPSEET and RTSPPFNTVYYTGEYEIIEI are within error of each other in amyloid nucleation score: 0.049 ± 0.29 for the first, -0.353 ± 0.54 for the second.

Going from RTSSWPTLTHEALLRSGDLC to RTTFA, the amyloid nucleation score rises from -0.637 ± 0.48 to 0.38 ± 0.33.

Going from RTYSFC to RVCKFKFYQFSSSKC, the amyloid nucleation score rises from -0.41 ± 0.93 to 3.75 ± 0.067.

Compared with RVCQKCCPVVYAMNQWIFDW, RVFLMCCVGEMLRMLQLSSD is lower in amyloid nucleation score: 7.536 ± 0.051 for the first, 6.46 ± 0.073 for the second.

RVFSSFGFMKRRPVWTVWIT and RVGYIYHYYLDNQG are within error of each other in amyloid nucleation score: -0.324 ± 0.81 for the first, -0.175 ± 0.38 for the second.

Going from RVIWEGNAVQTSAWGSADPK to RVMLKSDRFYYVLKTCAY, the amyloid nucleation score rises from -0.264 ± 0.64 to 1 ± 0.37.

Going from RVQCNNMKVCGITIFLMRS to RVQKNLINDFSESYPLCHWY, the amyloid nucleation score falls from 6.516 ± 0.049 to -0.553 ± 0.42.

RVSLSCIMKIYNFDKRVWLG and RVSSHGLILHFDKDNSMIAV are within error of each other in amyloid nucleation score: 0.521 ± 0.97 for the first, 0.936 ± 0.61 for the second.

Compared with RVTPISCKYVLLTPMRLKNR, RVYRYLPYRYERCLDL is lower in amyloid nucleation score: 2.35 ± 0.3 for the first, -0.504 ± 0.93 for the second.

RWCMCVENRGMLVWGWNGFV and RWGATRFVVTS are within error of each other in amyloid nucleation score: -0.245 ± 0.53 for the first, 0.304 ± 1.2 for the second.

RWGMFTWVYFMLYALWIMTL and RWLETVGECCCESARVFCA are within error of each other in amyloid nucleation score: 0.042 ± 0.44 for the first, -0.45 ± 0.59 for the second.

RWSQNMGSKSVRGTKFNLKL and RWVTLCRWVNVSSDGELGVR are within error of each other in amyloid nucleation score: 0.846 ± 0.21 for the first, 0.993 ± 0.35 for the second.

RYCQVP and RYEGKVKHYFKFKIKPMQV are within error of each other in amyloid nucleation score: 0.348 ± 0.43 for the first, 0.809 ± 0.41 for the second.

RYFSWFYVN and RYFVYLSVFDYFINHLDIRW are within error of each other in amyloid nucleation score: -0.089 ± 0.93 for the first, -0.79 ± 0.42 for the second.

First: RYGPAVLKSSGAAAVGHS
Second: RYISTLYEMNLKYVNVVQFH
The amyloid nucleation score of the first is lower: -0.59 ± 0.59 for the first, 6.416 ± 0.045 for the second.

For RRSWVFFVDWFIFVCLCVNG, the amyloid nucleation score was “inactive”.
For RSFWYDHGIRVGLRLYNCSM, the amyloid nucleation score was “inactive”.
In the case of RTSDLFAIMKVLDIMMSYTE, the amyloid nucleation score is reported as “inactive”.
